# Measurements taken from US9505841B2, “Use of an anti-Ang2 antibody” (Samsung Electronics Co., Ltd., priority 2013, dated 2016).
# T1: Ang2-Tie2 binding (Homo sapiens, UniProt O15123)
# T1 construct: purchased R&D Systems (hTie2-Fc)
# T1 sequence (O15123 19-496): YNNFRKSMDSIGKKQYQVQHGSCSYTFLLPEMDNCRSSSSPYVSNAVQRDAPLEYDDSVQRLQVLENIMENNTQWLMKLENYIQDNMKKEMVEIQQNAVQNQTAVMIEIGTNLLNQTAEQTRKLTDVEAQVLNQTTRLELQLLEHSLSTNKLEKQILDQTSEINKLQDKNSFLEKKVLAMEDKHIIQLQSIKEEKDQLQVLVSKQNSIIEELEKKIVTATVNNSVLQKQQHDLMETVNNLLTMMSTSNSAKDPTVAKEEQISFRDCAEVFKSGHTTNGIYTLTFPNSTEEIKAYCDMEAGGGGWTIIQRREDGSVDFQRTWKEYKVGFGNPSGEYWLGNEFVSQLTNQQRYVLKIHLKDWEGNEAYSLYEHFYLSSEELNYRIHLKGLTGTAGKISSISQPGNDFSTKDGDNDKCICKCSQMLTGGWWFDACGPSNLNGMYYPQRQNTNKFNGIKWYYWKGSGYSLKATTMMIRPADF
# B1: 10D6: mouse anti-Ang2 monoclonal antibody from hybridoma KCLRF-BP-00295; heavy chain variable region SEQ ID NO: 7, light chain variable region SEQ ID NO: 9 (antibody, V domains shown)
# VH: DVQLQESGPGLVKPSQSLSLTCTVTGYSITSDYAWNWIRQFPGNKLEWMGYINYSGNTDYNPSLKSRSSITRDTSKNQFFLQLNSVTTGDTATYYCARGNFEGAMDYWGQGTSVTVSS
# VL: SIVMTQTPKFLLVSAGDRVTITCKASQSVSNDVAWYQQKPGQSPKLLIYYASNRYPGVPDRFTGSGYGTDFTFTISTVQAEDLAVYFCQQDYSSPWTFGGGTKLEIK
# modifications: Synthetic (Heavy chain variable region of an anti-Ang2 antibody); Synthetic (Light chain variable region of anti-Ang2 antibody)
# Legend:
# Tie2 receptor = assay: Tie2 phosphorylation in HUVEC cells (immunoprecipitation/immunoblot); format: cell-based, human
# Protocol: As Ang2 induces a change in vascular endothelial cells by binding to a Tie-2 receptor expressed in the vascular endothelial cells to induce the phosphorylation of the receptor and activate it, a test for analyzing an influence of the anti-Ang2 antibody on Tie2 phosphorylation was conducted using a cell-based assay.
# For this, HUVEC (ATCC) cells (1×10^6) were cultured in a 100 mm culture dish using EGM-2 (Lonza) media at 37° C. and when they reached 80˜90% confluency, the media were replaced with serum-free media and cultured at 37° C. for 6 to 16 hours. The dish was washed once with PBS and after the replacement with […] sodium orthovanadate (Sigma)-mixed serum free media (Lonza), they were further cultured for 10 min. […]
# In addition, referring to the above method, when 60 nM of antibody 10D6 and Ang2 were treated, the phosphorylation level of Tie2 was measured and compared with the case of treating a control antibody (anti-Ang2 antibody (Regeneron) which has MOA of inhibiting binding between Ang2 and Tie2; represented as ‘RG antibody’). After treating with the antibody (10D6 or RG), the blot band density of pTyr and Tie2 was measured using ImageJ software and pTyr/Tie2 ratio was calculated.
# Ang2-Tie2 binding = biological target: T1, Ang2-Tie2 binding; assay: Ang2-Tie2 binding competition ELISA; conditions: antibody 400 nM to 0.001 nM; 400 ng/ml FLAG-tagged hAng2; hTie2-Fc coated plate
# Protocol: Ang2-Tie2 binding competition ELISA was conducted using the antibody binding to Ang2 prepared in Example 2-1 above.
# More specifically, MaxiSorp™ flat-bottom plate (Nunc) of 96-well was coated with hTie2-Fc (R&D Systems) which is a protein bound with 4 ug (microgram)/ml of Fc of human IgG1. After that, the plate was washed five times with 0.05% (v/v) Tween-20-containing PBS (phosphate buffer saline) and then blocked with 1% (v/v) BSA (bovine serum albumin; Sigma)-containing PBS at a room temperature for 2 hour.
# For Ang2:Tie2 competition ELISA, each anti-Ang2 antibody obtained in Example 2 was placed at various concentrations of 400 nM to 0.001 nM into each well coated with the hTie-2/Fc fusion protein along with 1% (v/v) BSA and 400 ng/ml of a FLAG-tagged hAng2 and then, the plate was allowed to react at a room temperature for 2 hours and washed five times with PBST. […] Lastly, 100 ul (microliter) of TMB substrate (Cell Signaling) was added to each well of the plate to induce color development for 3 min. and then, the reaction was ceased by the addition of 100 ul of Stop solution (Cell Signaling) and OD450 values were measured on a plate reader (Molecular Devices). […]
# [1] = test system: blood vessels in tumor tissues; assay: Immunofluorescence of blood vessels (CD31) and pericytes (PDGFR-β) in LLC tumors; format: in vivo, mouse; conditions: LLC tumors of Example 14; compared to Fc- or 4H10-treated tumors
# Description: To examine changes in blood vessels in tumor tissues after treated with antibody, frozen sections were obtained and subjected to immunofluorescence staining using a blood vessel specific marker, CD31 and a pericyte specific marker, PDGFR-β.
# In particular, the tumor tissues obtained from Example 14 were frozen using OCT compound (Sakura Finetek), and frozen sections were obtained therefrom using cryostat (Leica). The obtained tumor frozen sections were blocked with 0.3% TBST (TBS mixed with 0.3% Triton X-100) buffer supplemented with 5% goat serum (Jackson Immunoresearch) for one hour. To the blocking buffer, hamster anti-CD31 antibody (1:200, Millipore) and rat anti-PDGF receptor beta antibody (1:200, eBioscience) were added, and the frozen sections were added thereto to be allowed to react for 3 hours. the reacted product was washed with TBS three times, and then, the blocking buffer mixed with cy3-conjugated anti-hamster IgG antibody and FITC-conjugated anti-rat IgG antibody (1:1,000, Jackson Immunoresearch) was added the frozen sections to be allowed to react for 2 hours. After washing with TBS three times, the frozen sections were covered with coverslip (Marenfield) using Fluorescence mounting medium (DAKO). The stained tumor frozen sections were observed using LSM5 (Zeiss) confocal microscope. […]
molecule,measurement,setting,value
B1,"Tie2 phosphorylation effect, fold higher than control antibody RG",Tie2 receptor; 60 nM antibody and Ang2,about 8.6 fold
same,phosphorylation of Tie2 compared to Ang2 treated alone,"Tie2 receptor; antibody 600~0.06 nM with 40 nM Ang2, every antibody concentration tested",more strongly induced
same,inhibition of Ang2-Tie2 binding,Ang2-Tie2 binding,did not inhibit
same,blood vessel density and vascular normalization in tumor,[1],decreases the density of blood vessels in tumor and induces vascular normalization
